Measurements taken from patent US20230331820A1 (GlaxoSmithKline, published 2023).
Like-named read-outs stand apart in the source and are kept apart here.

How the values were obtained:
[1] = target: T1, gE WT: HSV2 gE wildtype ectodomain (HSV2, UniProt P89475 21-416); experiment: ELISA, supernatant
[2] = target: gEgI mutant (R320D): HSV2 gEgI mutant heterodimer comprising gE and gI ectodomains with mutation R320D in gE (HSV2, UniProt P89475 21-416; P06764 21-256); experiment: ELISA, supernatant
[3] = target: gEgI mutant (338): HSV2 gEgI mutant heterodimer comprising gE and gI ectodomains with insertion of a (HSV2, UniProt P89475 21-416; P06764 21-256); experiment: ELISA, supernatant
[4] = target: gEgI mutant (P319D): HSV2 gEgI mutant heterodimer comprising gE and gI ectodomains with mutation P319D in gE (HSV2, UniProt P89475 21-416; P06764 21-256); experiment: ELISA, supernatant
[5] = target: gEgI mutant (P317R): HSV2 gEgI mutant heterodimer comprising gE and gI ectodomains with mutation P317R in gE (HSV2, UniProt P89475 21-416; P06764 21-256); experiment: ELISA, supernatant
[6] = target: T2, gEgI WT: HSV2 gEgI heterodimer comprising gE and gI wildtype ectodomains (HSV2, UniProt P89475 21-416; P06764 21-256); experiment: ELISA, supernatant
[7] = target: T3, gI WT: HSV2 gI wildtype ectodomain (HSV2, UniProt P06764 21-256); experiment: ELISA, supernatant
[8] = target: T1, gE WT: HSV2 gE wildtype ectodomain; experiment: ELISA, supernatant; remark: listed apart in the source
[9] = target: T2, gEgI WT: HSV2 gEgI heterodimer …; experiment: SPR binning; gEgI captured by mAb 5
[10] = target: T2, gEgI WT: HSV2 gEgI heterodimer …; experiment: SPR binning; gEgI captured by mAb 9
[11] = target: T2, gEgI WT: HSV2 gEgI heterodimer …; experiment: SPR binning; gEgI captured by mAb 10
[12] = target: T2, gEgI WT: HSV2 gEgI heterodimer …; experiment: SPR binning; gEgI captured by mAb 15
[13] = target: T2, gEgI WT: HSV2 gEgI heterodimer …; experiment: SPR binning; gEgI captured by mAb 17
[14] = target: T2, gEgI WT: HSV2 gEgI heterodimer …; experiment: SPR binning; gEgI captured by mAb 19
[15] = target: T2, gEgI WT: HSV2 gEgI heterodimer …; experiment: SPR binning; gEgI captured by mAb 20
[16] = target: T2, gEgI WT: HSV2 gEgI heterodimer …; experiment: SPR binning; gEgI captured by mAb 24
[17] = target: T2, gEgI WT: HSV2 gEgI heterodimer …; experiment: SPR binning; gEgI captured by mAb 34
[18] = target: T2, gEgI WT: HSV2 gEgI heterodimer …; experiment: SPR binning; gEgI captured by mAb 39
[19] = target: T2, gEgI WT: HSV2 gEgI heterodimer …; experiment: SPR binning; gEgI captured by mAb 40
[20] = target: T2, gEgI WT: HSV2 gEgI heterodimer …; experiment: SPR binning; gEgI captured by mAb 42
[21] = target: T2, gEgI WT: HSV2 gEgI heterodimer …; experiment: SPR binning; gEgI captured by mAb 45
[22] = target: T3, gI WT: HSV2 gI wildtype ectodomain; experiment: ELISA, supernatant; remark: listed apart in the source

Row | Binder | binding result [2] | binding result [3] | binding result [4] | binding result [5] | binding result [6] | binding result [7] | binding result [8] | other results
1 | mAb clone 41 (antibody, V domains shown) VH: QVQLQQSGAELVRPGTSVKVSCKASGYAFTNYLIEWVKQRPGQGLEWIGVINPGSGGTNYNEKFKGKATLTADKSSSTAYMQLSSLTSDDSAVYFCARSGLRRDYYAMDYWGQGTSVTVSS VL: not shown | binds | binds | binds | binds | binds | binds |  | binding result [1]: no binding
2 | mAb clone 40 (antibody, V domains shown) VH: QIQLVQSGPELKKPGETVKISCKASGYTFTNYGMNWVKQAPGKGLKWMGWINTYTGEPTYADDFKGRFAFSLETSASTAYLQINNLKNEDTATYFCARSLYGYDEGYFDVWGAGTTVTVSS VL: DIQMTQSPASLSASVGETVTITCRASGNIHNYLAWYQQKQGKSPQLLVYNAKTLADGVPSRFSGSGSGTQYSLKINSLQPEDFGSYYCQHFWSTPYTFGGGTKLEIK |  | binds |  |  |  | no binding | no binding | RU [9]: 9 RU; RU [10]: 8.8 RU; RU [11]: 9.8 RU; RU [12]: -0.4 RU; RU [13]: 8.8 RU; RU [14]: 6.4 RU; RU [15]: 10 RU; RU [16]: 7.6 RU; RU [17]: 5.2 RU; RU [18]: 9 RU; RU [19]: 2.6 RU; RU [20]: 7.4 RU; RU [21]: 7.3 RU
3 | mAb clone 37 (antibody, V domains shown) VH: EVQLQQSGPELVKPGASVKISCKASGYTFTDYNMHWVKQSHGKSLEWIGYIYPYNGGTGYNQKFKTKATLTVDNSSSTAYMELRSLTSEDSAVYYCAIPGYYYAMDYWGQGTSVTVSS VL: DIVLTQSPASLAVSLGQRATISCRASKSVSTSGYSYMHWYQQKPGQPPKLLIYLASNLESGVPARFSGSGSGTDFTLNIHPVEEEDASTYYCHHSRELPRTFGGGTKLEIK | binds | binds | binds | binds | binds | no binding | binds | 
4 | mAb clone 48 (antibody, V domains shown) VH: QVTLKESGPGILQPSQTLSLTCSFSGFSLSTSGMGVSWIRQPSGKGLEWLAHIYWDDDKRYNPSLKSRLTISKDTSSNQVFLKITSVDTADTATYYCARRGFYYRYDGGRRYYYAMDYWGQGTSVTVSS VL: DILLTQSPAILSVSPGERVSFSCRASQSIGTSIHWYQQGTNGSPRLLIKFASESISGIPSRFSGSGSGTDFTLSINSVESEDIADYYCQQSNSWPLTFGAGTKLELK | binds | binds | binds | binds | binds |  | binds | binding result [22]: no binding
